This passage reports Circuit Expression (inducible BFP reporter) results from patent US20240165163A1.

The target in this assay is human CD19 (human) (UniProt P15391). The assay is described as follows: cell-based or functional assay.
UniProt P15391, sequence (P15391 20-556): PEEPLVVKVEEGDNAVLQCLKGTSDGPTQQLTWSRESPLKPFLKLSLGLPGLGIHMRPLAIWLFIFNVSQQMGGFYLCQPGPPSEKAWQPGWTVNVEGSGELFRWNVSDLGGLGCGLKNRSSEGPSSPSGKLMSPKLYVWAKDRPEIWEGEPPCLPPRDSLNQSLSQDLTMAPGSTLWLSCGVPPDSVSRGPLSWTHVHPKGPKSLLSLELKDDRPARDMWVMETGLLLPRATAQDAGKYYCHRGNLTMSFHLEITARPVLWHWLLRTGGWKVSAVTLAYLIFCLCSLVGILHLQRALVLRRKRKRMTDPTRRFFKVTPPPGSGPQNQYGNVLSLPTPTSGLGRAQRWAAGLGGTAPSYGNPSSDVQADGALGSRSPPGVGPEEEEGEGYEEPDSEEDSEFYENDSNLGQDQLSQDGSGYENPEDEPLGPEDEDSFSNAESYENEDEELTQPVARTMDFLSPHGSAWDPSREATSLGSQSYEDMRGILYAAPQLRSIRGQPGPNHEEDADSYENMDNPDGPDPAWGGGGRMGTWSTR

Regarding “antiCD19scFv-CD8Hinge2-Notch1TMD-Notch2STS-truncCD28delTPRRP-CD3z-Gal4VP64 (receptor)”, the Circuit Expression (inducible BFP reporter) was more than 80%.
